# Publication doi:10.1101/2020.06.11.147496
# Columns and labels:
# [1] = molecular target: LuS-N71-SpyTag (Aquifex aeolicus lumazine synthase nanoparticle with a glycan at N71 and SpyTag at the N-terminus) (Aquifex aeolicus)
# [2] = molecular target: ferritin-N96-SpyTag (Helicobacter pylori ferritin nanoparticle with a glycan at N96 and SpyTag) (Helicobacter pylori)
substance,measurement,setting,value
RSV F-SpyCatcher (respiratory syncytial virus prefusion F 'DS2' trimer with SpyCatcher at the C-terminus),percent of nanoparticle subunits conjugated,[1],67%
same,percent of nanoparticle subunits conjugated,[2],85%
